Patent publication US20210130477A1

What was measured:
hCD63.mmh (human) = hCD63.mmh (human) (UniProt P08962); experiment: SPR (Biacore) kinetics, mAb captured, hCD63.mmh as analyte
hFGFR3b.mmh (human) = hFGFR3b.mmh (human) (UniProt P22607); experiment: SPR (Biacore) kinetics, mAb captured, hFGFR3b.mmh as analyte
hAPLP2.mmh (human) = hAPLP2.mmh (human) (UniProt Q06481); experiment: SPR (Biacore) kinetics, mAb captured, hAPLP2.mmh as analyte
[1] = target: human FGFR1c and human KLB co-expressed on HEK293 cells (human) (UniProt P11362); experiment: cell-based or functional assay
Chain of UniProt P11362 (P11362 22-376): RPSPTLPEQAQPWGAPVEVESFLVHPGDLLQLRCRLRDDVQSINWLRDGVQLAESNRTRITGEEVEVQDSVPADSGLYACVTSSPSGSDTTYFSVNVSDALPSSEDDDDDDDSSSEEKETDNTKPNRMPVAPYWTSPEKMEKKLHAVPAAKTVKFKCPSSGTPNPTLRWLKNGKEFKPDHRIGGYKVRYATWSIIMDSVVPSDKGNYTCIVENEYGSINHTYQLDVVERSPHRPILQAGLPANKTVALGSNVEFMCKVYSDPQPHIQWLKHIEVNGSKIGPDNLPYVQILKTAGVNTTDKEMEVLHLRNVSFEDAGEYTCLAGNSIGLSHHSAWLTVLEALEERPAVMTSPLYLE

hFGFR1c_V5_6×His (human) = hFGFR1c_V5_6×His (human) (UniProt P11362); experiment: SPR (Biacore), antibody captured on anti-human Fc (REGN2567) CM5 chip, hFGFR1c_V5_6xHis injected, 25 C, 1:1 fit
hKLB.HA.6×His (human) = hKLB.HA.6×His (human) (UniProt Q86Z14); experiment: SPR (Biacore), antibody captured on anti-human Fc (REGN2567) CM5 chip, hKLB.HA.6xHis injected, 25 C, 1:1 fit

Question: For REGN1945 (antibody), which 100 nM Antigen Bound (RU) (hCD63.mmh (human)) is on record?
Answer: 0.5 RU

Question: And the 100 nM Antigen Bound (RU) (hFGFR3b.mmh (human))?
Answer: 1.8 RU

Question: What about the 100 nM Antigen Bound (RU) (hAPLP2.mmh (human)) of the same substance?
Answer: -0.5 RU

Question: Which results are given for REGN4304 (bispecific antibody)?
Answer: % Act, SRE-luciferase reporter [1]: 42%; agonist activity relative to hFGF21, SRE-luciferase reporter [1]: 30%

Question: Which results are given for REGN4366 (bispecific antibody)?
Answer: % activation normalized against soluble FGF21, SRE-luciferase reporter [1]: 19%; agonist activity relative to hFGF21, SRE-luciferase reporter [1]: 30%; 100 nM Antigen Bound (RU) (hFGFR1c_V5_6×His (human)): 50 RU; Kd (hFGFR1c_V5_6×His (human)): 539 nM; koff (hFGFR1c_V5_6×His (human)): 0.0247 s⁻¹; kon (hFGFR1c_V5_6×His (human)): 45900 M⁻¹ s⁻¹; 100 nM Antigen Bound (RU) (hKLB.HA.6×His (human)): 411 RU; Kd (hKLB.HA.6×His (human)): 25.5 nM; koff (hKLB.HA.6×His (human)): 0.0122 s⁻¹; kon (hKLB.HA.6×His (human)): 476000 M⁻¹ s⁻¹

Question: How did the % Act, SRE-luciferase reporter [1] turn out when “Recombinant human FGF21 with 6×His tag (from UniProt Q9NSA1 29-209) (ligand)” was run?
Answer: 100%

Question: What about the % Activity of (FGF21), SRE-luciferase reporter [1] of the same substance?
Answer: 100%

Question: What about the EC50 (M), SRE-luciferase reporter [1] of the same substance?
Answer: 3.4e-09 M
